How the values were obtained:
Type in all cases: in vivo
[1] = system: Actinobacillus pleuropneumoniae (App); experiment: App challenge of pigs, prophylactic low or high doses of IL-1ra or IL-1ra+IL-4 (Table 8); conditions: for rate of gain: last 10 days of challenge, FIG. 44
Procedure: Blood was sampled from pigs by venipuncture at −24 h, +0 h, +24 h and +3 weeks from challenge. Blood was assayed for immunological parameters as previously described. Pigs were weighed at day −1, day 10 and at 3 weeks.

[2] = system: Actinobacillus pleuropneumoniae (App); experiment: App challenge of pigs, therapeutic IL-1ra at low and high doses or Excenel (Example 7); conditions: for feed consumed: FIG. 52
Procedure: Male pigs with a mean starting weight of 34.6 kg, were allocated to 4 treatment groups of 9 pigs each. Treatments were saline, IL-1ra at 2 μg per kg, IL-1ra at 10 μg per kg and Excenel, the current clinical treatment for App infection. Pigs were housed in pens of 3 pigs, with 3 replicates of each. Pigs were provided with pelleted feed and water ad libitum. The starting weights of each treatment group and each pen were equal prior to the start of the trial.
Pigs were anaesthetised and infected intratracheally with 7.5×10^5 pfu on day 0. Recombinant IL-1ra and saline were administered as 2ml doses, given subcutaneously behind the ear. Excenel was administered to pigs according to the manufacturer's instructions. Pigs were treated with IL-1ra, saline or Excenel at 24 h, 48 h and one week after challenge with App.
Blood was sampled from pigs by venipuncture at 0 h, 24 h, 48 h, 1 week and 2 weeks after infection. Blood was assayed for immunological parameters as previously described. Pigs were weighed the day prior to challenge, and days 6 and 13 after challenge.

[3] = system: Brachyspira (Serpulina) hyodysenteriae; experiment: Swine dysentery challenge of weaner pigs, prophylactic treatment (Example 4); conditions: for reduction in spirochaete culture scores at post-mortem compared to saline: FIG. 25
Procedure: Male pigs with a mean starting weight of 6.5 kg, were allocated to treatment groups consisting of eight pigs. Pigs were housed in group pens, with each pen containing a replicate from each of the treatment groups. One group of 8 pigs was housed in a separate room and left uninfected to act as untreated controls. Pigs were provided with pelleted feed and water ad libitum.
Prior to swine dysentery challenge, pigs were treated with 200 μg recombinant IL-1ra or 1 ml saline via intramuscular injection. Lincocin was delivered as a 2 ml intramuscular injection according to the manufacturer's instructions. Cytokines, antibiotics and challenges were performed at intervals described in the experimental protocol outlined in Table 5. Pigs were infected with Brachyspira hyodysenteriae at day 0, day 1 and day 2, given as an oral bolus of 120 ml of spirochaete culture in log phase of growth, containing approximately 10^8 cells.
Faecal swabs and blood samples were taken from each pig at intervals described in Table 5. Faecal swabs were cultured for the presence of spirochaetes. Blood samples were assayed for immunological parameters as described in Example 3 above. Pigs were weighed at weekly intervals throughout the experiment, which was terminated by euthanasia on days 19 and 20 after the initial challenge. At post-mortem, swabs from areas of the hindgut were cultured for the presence of spirochaetes, and the gross pathological condition of the gastro-intestinal tissue noted.

[4] = system: haemorrhagic E. coli; experiment: Haemorrhagic E. coli challenge of weaner pigs, prophylactic treatment (Example 3); conditions: for reduction of E. coli culture score at post-mortem compared to saline: FIG. 19
Procedure: Male weaner pigs, with a mean weight of 5.4 kg were allocated to groups of 8, with the mean weight being equalised between groups. Pigs were housed in group pens containing a replicate from each treatment group. Pigs were provided with pelleted feed and water ad libitum.
Pigs were treated with recombinant saline, IL-1ra or the antibiotic, Apralan, and challenged with E. coli according to the schedule outlined in Table 3. Saline, or 200 μg of IL-1ra were delivered intramuscularly in 1 ml doses. Apralan was delivered orally according to manufacturer's instructions at a dose of 12 mg/kg. E. coli challenges were delivered orally in an 8 ml dose containing 10^8 cfu/ml. Blood was sampled from pigs by venipuncture at −2 days, day 0, and +6 days from initial challenge with E. coli as outlined in Table 3. Blood was assayed for immunological parameters including white blood cell number, differential cell counts, lymphocyte subset enumeration, IgG levels and cytokine production. Pigs were weighed at day −2 and at the end of the trial on day 6.
Faecal samples were taken from each pig daily for 5 days from day 2 to day 6 after challenge; these samples were cultured on sheep blood agar to quantify E. coli load. Growth on sheep blood agar was scored from 0 to 5 (where 0 was no growth, 1 signified growth in the primary inoculum, 2 signified growth in the first streak, 3 signified growth in the 2nd streak, 4 signified growth in the 3rd streak, and 5 signified growth of E. coli in the final streak). The condition of faeces was noted as normal, wet or diarrhoea, as an indication of clinical signs.
At the conclusion of the experiment on day 7, pigs were euthanased and swabs were taken from different areas in the gastro-intestinal tract, including the small intestine (25%, 50% and 75% along the length of the small intestine), the caecum and colon, and from the faeces in situ. These post-mortem swabs were cultured on sheep blood agar to quantify E. coli load as described above.

B1: IL-1ra: Recombinant porcine IL-1ra expressed in E. coli and purified using a polyhis tag system (protein, UniProt Q29056 26-177, looked up)
Interleukin-1 receptor …: HPLGKRPCRMQAFRIWDVNQKTFYLRNNQLVAGYLQGPNTKLEEKIDVVPVEPHFVFLGIHGGKLCLSCVKSGDEMKLQLDAVNITDLRKNSEQDKRFTFIRSDSGPTTSFESAACPGWFLCTALEADQPVGLTNTPKAAVKVTKFYFQQDQ
modifications: polyhistidine tag
notes: Recombinant porcine IL-1ra expressed in E. coli and purified using a polyhis tag system
[1]; 21 days of App challenge, low and high doses, FIG. 46
  improved growth compared to saline treated controls: 13.5%
[1]; high dose, FIG. 47
  amount of lung affected by App lesions: reduced the amount of lung affected by App lesions
[1]; high dose, FIG. 49
  production of the pro-inflammatory cytokine IL-8 (mRNA in lung tissue): greatly reduced
[1]; high dose, first 10 days of App challenge, FIG. 43
  increase in rate of gain vs saline: > 100 g/day
[1]; high doses, FIG. 48
  degree of pleurisy seen at post-mortem: reduced
[1]; high doses, FIG. 50
  production of TNFα (mRNA in lung tissue): inhibited
[1]; high doses
  rate of gain: 1170 g/day
[1]; low and high doses, FIG. 45
  weight gained during the 21-day challenge period: 17.9 kg
[1]; low doses
  rate of gain: 1250 g/day
[2]; IL-1ra at high dose (10 μg per kg)
  feed consumed: 1.8 kg of feed per day
[2]; IL-1ra at low dose (2 μg per kg), Excenel per manufacturer's instructions, FIG. 51
  weight gained in the second week of challenge: 5.7 kg
[2]; IL-1ra at low dose (2 μg per kg), Excenel per manufacturer's instructions
  feed consumed: 1.7 kg of feed per day
[2]; low dose IL-1ra, Excenel, compared to saline treated controls
  production of IL-8 in the caudal-mediastinal lymph nodes: reduced the production of IL-8
[2]; low dose IL-1ra, FIG. 53
  feed conversion ratio (FCR, feed:gain): 1.6
[2]; low dose IL-1ra, FIG. 54
  proliferative responses of lymphocytes in the presence of killed App: tended to have improved proliferative responses of lymphocytes
[2]; low doses, compared to other treatments, FIG. 55
  production of the pro-inflammatory cytokine IL-8 in lung tissue (mRNA at post-mortem): reduced the production
[3]; anterior colon
  reduction in spirochaete culture scores at post-mortem compared to saline: 15.8%
[3]; faecal spirochaetes
  reduction in spirochaete culture scores at post-mortem compared to saline: 42.1%
[3]; posterior colon
  reduction in spirochaete culture scores at post-mortem compared to saline: 47.1%
[3]; vs saline
  net reduction in spirochaetes throughout the GIT: 27%
[3]; vs saline treated controls, FIG. 26
  faecal condition at post-mortem (clinical signs): fewer signs of dysentery-affected faeces
[3]; vs saline treated controls, FIGS. 27, 28 and 29
  production of the pro-inflammatory cytokines TNF, IL-8 and IL-1 (mRNA in peripheral blood): reduce the production
[4]; 5 days after E. coli challenge, FIG. 15
  decrease in faecal shedding, faecal scores tallied over the entire challenge period, compared to saline treated controls: 37%
[4]; 5 days after E. coli challenge, FIG. 16
  recorded cases of wet faeces and diarrhoea (clinical signs): fewer recorded cases of wet faeces and diarrhoea
[4]; FIG. 20
  group mean total E. coli culture score, all gut areas at post-mortem: less than 10 out of a possible 30
[4]; anterior part of the small intestine
  reduction of E. coli culture score at post-mortem compared to saline: 71%
[4]; caecum
  reduction of E. coli culture score at post-mortem compared to saline: 39%
[4]; colon
  reduction of E. coli culture score at post-mortem compared to saline: 44%
[4]; faecal condition, FIG. 17
  reduction in clinical signs compared to saline controls: 64%
[4]; faecal cultures
  days on which bacterial shedding was significantly less than saline treated controls: 3/5
[4]; faeces in situ
  reduction of E. coli culture score at post-mortem compared to saline: 23%
[4]; mid small intestine
  reduction of E. coli culture score at post-mortem compared to saline: 51%
[4]; post-mortem, FIG. 23
  reduction in E. coli in the hindgut area (caecum and colon) compared to saline controls: 42%
  reduction of bacterial load in the small intestine (foregut) compared with saline controls: 55%
[4]; posterior small intestine
  reduction of E. coli culture score at post-mortem compared to saline: 47%
[4]; total culture scores at post-mortem, FIG. 21
  reduction in the amount of E. coli in the gastro-intestinal tract compared to saline controls: 45%
[4]; vs saline, FIG. 14
  period of reduced bacterial shedding in faeces after challenge: day 2 through to day 4
[4]; ↓ (decrease)
  Change compared to saline treated controls: Change in clinical signs: 63.6%
  Change compared to saline treated controls: Change on faecal bacterial load: 36.5%
  Change compared to saline treated controls: E. coli at post-mortem: 44.6%
  Change compared to saline treated controls: E. coli in foregut: 55.4%
  Change compared to saline treated controls: E. coli in hindgut: 41.7%
  Change compared to saline treated controls: Presence of bacterial shedding in faeces: 3 days
